One molecule from patent US20240262899A1 (UNIVERSITY OF VIRGINIA PATENT FOUNDATION, published 2024) can be followed below.

The target of the assay is T1, histone H3 (H3) peptide, unmodified (UniProt P68431 2-31).
T1 construct: A synthetic peptide of histone H3, not the whole protein; also called unmodified H3
Briefly: western blot of peptides. How it is done:
Four distinct peptides—histone H3 (H3), citrullinated histone H3 (CitH3; 4 Cit), acetylated histone H3 (AccH3), and methylated histone H3 (MetH3)—at a concentration of 0.5 microgram each, were run in duplicate through SDS-polyacrylamide gel electrophoresis and then transferred to a nitrocellulose membrane (FIG. 7A). This membrane was split into two sections for parallel probing with an equal quantity of Cayman CitH3-mAb (Ann Arbor, MI) or hCitH3-mAb (2 μg/ml) overnight. Post three extensive washes, the sections were incubated with HRP-conjugated secondary antibodies specific to mouse IgG and human IgG (Jackson ImmunoResearch Labs. Cat #309-035-008), respectively, for 2 hours. For concurrent signal development, both membrane sections were exposed simultaneously for the same duration.
(In general: Immunoblotting shows a protein as a band on a membrane.)

B1: Y1128-VH3/VL3 (hCitH3-mAb) (antibody, V domains shown)
VH: EVQVVQSGAEVKKPGATVKISCKASGFNIKDYYMHWMKQRPEQGLEWIGWIDPENGNTIYDPKFQGRATITSDTSTDTAYLELSSLRSEDTAVYYCAPFGNYVWFAYWGQGTLVTVSS
VL: DVLMTQSPLSLPVTLGQPASISCRSSQSIVHSNGITYLEWYLQRPGQSPKLLIYKVSNRFSGVPDRFSGSGSGTDFTLKISRVEAEDVGLYYCFQGSHVPFTFGQGTKLEIKR
notes: Final lead humanized antibody; intact IgG, detected with anti-human IgG secondary; also called H3L3; humanized CitH3 monoclonal antibody
As for B1, the binding result is listed as “no binding (tested: 2 ug/ml antibody; 0.5 microgram peptide)”.
